What was measured:
[1] = molecular target: TFPI (Homo sapiens) (UniProt P10646); conditions: cited from earlier work
[2] = molecular target: T1, Zn^2+-containing protein S (immunoaffinity-purified) (UniProt P07225 42-676); assay: fluid phase binding assay
T1 sequence (looked up): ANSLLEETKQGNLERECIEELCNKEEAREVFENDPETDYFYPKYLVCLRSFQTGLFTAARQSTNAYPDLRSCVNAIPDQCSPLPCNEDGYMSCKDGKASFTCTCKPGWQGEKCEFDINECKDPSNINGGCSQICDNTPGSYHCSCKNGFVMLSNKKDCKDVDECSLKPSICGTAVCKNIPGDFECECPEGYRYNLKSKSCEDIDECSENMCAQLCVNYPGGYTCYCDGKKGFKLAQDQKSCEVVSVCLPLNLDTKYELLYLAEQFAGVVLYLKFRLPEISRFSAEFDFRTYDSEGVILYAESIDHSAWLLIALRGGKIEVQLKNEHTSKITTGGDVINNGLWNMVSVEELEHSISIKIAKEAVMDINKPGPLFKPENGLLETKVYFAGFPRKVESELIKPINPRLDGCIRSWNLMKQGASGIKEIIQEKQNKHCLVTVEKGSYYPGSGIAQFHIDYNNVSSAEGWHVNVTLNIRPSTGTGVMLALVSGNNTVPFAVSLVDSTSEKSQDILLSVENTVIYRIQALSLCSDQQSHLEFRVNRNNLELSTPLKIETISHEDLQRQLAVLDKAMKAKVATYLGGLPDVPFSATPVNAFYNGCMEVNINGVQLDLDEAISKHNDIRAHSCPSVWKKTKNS

[3] = molecular target: Soluble tissue factor (residues 1-218); assay: fluid phase binding assay
[4] = molecular target: Factor X; assay: fluid phase binding assay
[5] = molecular target: Soluble tissue factor (residues 1-218); assay: fluid phase binding assay; remark: listed apart in the source
[6] = molecular target: Soluble tissue factor (residues 1-218); assay: ELISA
[7] = molecular target: T2, factor X (Homo sapiens, UniProt P00742)
T2 chain: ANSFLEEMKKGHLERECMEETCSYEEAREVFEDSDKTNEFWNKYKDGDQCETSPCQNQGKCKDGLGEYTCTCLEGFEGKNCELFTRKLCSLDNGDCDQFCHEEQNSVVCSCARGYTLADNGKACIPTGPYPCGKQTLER

Chain of TFPI (Homo sapiens) (P10646 29-304): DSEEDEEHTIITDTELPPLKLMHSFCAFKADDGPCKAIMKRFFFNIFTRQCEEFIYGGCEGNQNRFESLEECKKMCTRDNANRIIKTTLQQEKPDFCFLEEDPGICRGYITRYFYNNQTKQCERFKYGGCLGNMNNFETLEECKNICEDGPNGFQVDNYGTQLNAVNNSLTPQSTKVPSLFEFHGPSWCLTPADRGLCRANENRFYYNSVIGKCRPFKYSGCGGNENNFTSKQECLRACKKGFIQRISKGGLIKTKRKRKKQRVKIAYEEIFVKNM

In the case of protein S (from UniProt P07225), the Kd [1] is listed as 21 nM.

B1: Full length nonlipidated tissue factor (natural protein, UniProt P13726 33-295, looked up)
chain: SGTTNTVAAYNLTWKSTNFKTILEWEPKPVNQVYTVQISTKSGDWKSKCFYTTDTECDLTDEIVKDVKQTYLARVFSYPAGNVESTGSAGEPLYENSPEFTPYLETNLGQPTIQSFEQVGTKVNVTVEDERTLVRRNNTFLSLRDVFGKDLIYTLYYWKSSSSGKKTAKTNTNEFLIDVDKGENYCFSVQAVIPSRTVNRKSTDSPVECMGQEKGEFREIFYIIGAVVFVVIILVIILAISLHKCRKAGVGQSWKENSPLNVS
B1 gave a Kd [2] of 41 nM.

B2: Zn^2+-containing protein S (immunoaffinity-purified) (natural protein)
chain: T1 sequence (looked up)
Molecule B2 has a Kd [3] of 41 nM, a Kd [4] of 127 nM and a Kd [5] of 41 nM.

B3: Zn^2+-reconstituted commercial protein S (natural protein)
chain: T1 sequence (looked up)
In the case of B3, the Kd [6] is reported as 39 nM.

B4: protein S (protein)
chain: T1 sequence (looked up)
modifications: Zn2+-containing
B4 showed a Kd [7] of ~130 nM.
